Molecular target: the molecule itself
Experiment: cryo-EM structure; single-particle cryo-EM of DrBphP-DrRR in the Pr state: 780 nm far-red light on the grid; 1-1.5 mg/ml protein with 10 mM CaCl2, 10 mM MgCl2, 4 mM AMP-PNP; Vitrobot at 4 °C; no symmetry imposed

B1: DrBphP-DrRR fusion protein (Deinococcus radiodurans phytochrome fused to its response regulator by a 12 amino acid tether) (other)
chain: MSRDPLPFFPPLYLGGPEITTENCEREPIHIPGSIQPHGALLTADGHSGEVLQMSLNAATFLGQEPTVLRGQTLAALLPEQWPALQAALPPGCPDALQYRATLDWPAAGHLSLTVHRVGELLILEFEPTEAWDSTGPHALRNAMFALESAPNLRALAEVATQTVRELTGFDRVMLYKFAPDATGEVIAEARREGLHAFLGHRFPASDIPAQARALYTRHLLRLTADTRAAAVPLDPVLNPQTNAPTPLGGAVLRATSPMHMQYLRNMGVGSSLSVSVVVGGQLWGLIACHHQTPYVLPPDLRTTLEYLGRLLSLQVQVKEAADVAAFRQSLREHHARVALAAAHSLSPHDTLSDPALDLLGLMRAGGLILRFEGRWQTLGEVPPAPAVDALLAWLETQPGALVQTDALGQLWPAGADLAPSAAGLLAISVGEGWSECLVWLRPELRLEVAWGGATPDQAKDDLGPRHSFDTYLEEKRGYAEPWHPGEIEEAQDLRDTLTGALGERLSVIRDLNRALTQSNAEWRQYGFVISHHMQEPVRLISQFAELLTRQPRAQDGSPDSPQTERITGFLLRETSRLRSLTQDLHTYTALLSAPPPVRRPTPLGRVVDDVLQDLEPRIADTGASIEVAPELPVIAADAGLLRDLLLHLIGNALTFGGPEPRIAVRTERQGAGWSIAVSDQGAGIAPEYQERIFLLFQRLGSLDEALGNGLGLPLCRKIAELHGGTLTVESAPGEGSTFRCWLPDAGPLPGAADAASSAGGSAGSAGMPERASVPLRLLLVEDNAADIFLMEMALEYSSVHTELLVARDGLEALELLEQAKTGGPFPDLILLDLNMPRVDGFELLQALRADPHLAHLPAIVLTTSNDPSDVKRAYALQANSYLTKPSTLEDFLQLIERLTAYWFGTAAIPQTYQPQ
modifications: biliverdin (BV) chromophore; lysate incubated with a molar excess of biliverdin hydrochloride
notes: 938-aa construct in pET21b(+), counting the N-terminal T7-tag and the C-terminal His6-tag; Models were built up to Leu591 (Pr) and for residues 22-521 (Pfr); also called full-length DrBphP-DrRR; source: E. coli BL21 (DE3), purified (NiNTA, size-exclusion chromatography)
In the case of B1, the “stoichiometry N” value is reported as 2.

B2: Phytochrome from Deinococcus radiodurans (DrBphP), as the phytochrome part of the DrBphP-DrRR fusion (enzyme)
chain: MSRDPLPFFPPLYLGGPEITTENCEREPIHIPGSIQPHGALLTADGHSGEVLQMSLNAATFLGQEPTVLRGQTLAALLPEQWPALQAALPPGCPDALQYRATLDWPAAGHLSLTVHRVGELLILEFEPTEAWDSTGPHALRNAMFALESAPNLRALAEVATQTVRELTGFDRVMLYKFAPDATGEVIAEARREGLHAFLGHRFPASDIPAQARALYTRHLLRLTADTRAAAVPLDPVLNPQTNAPTPLGGAVLRATSPMHMQYLRNMGVGSSLSVSVVVGGQLWGLIACHHQTPYVLPPDLRTTLEYLGRLLSLQVQVKEAADVAAFRQSLREHHARVALAAAHSLSPHDTLSDPALDLLGLMRAGGLILRFEGRWQTLGEVPPAPAVDALLAWLETQPGALVQTDALGQLWPAGADLAPSAAGLLAISVGEGWSECLVWLRPELRLEVAWGGATPDQAKDDLGPRHSFDTYLEEKRGYAEPWHPGEIEEAQDLRDTLTGALGERLSVIRDLNRALTQSNAEWRQYGFVISHHMQEPVRLISQFAELLTRQPRAQDGSPDSPQTERITGFLLRETSRLRSLTQDLHTYTALLSAPPPVRRPTPLGRVVDDVLQDLEPRIADTGASIEVAPELPVIAADAGLLRDLLLHLIGNALTFGGPEPRIAVRTERQGAGWSIAVSDQGAGIAPEYQERIFLLFQRLGSLDEALGNGLGLPLCRKIAELHGGTLTVESAPGEGSTFRCWLPDAGPLPGAADA
modifications: biliverdin (BV) chromophore; lysate incubated with a molar excess of biliverdin hydrochloride
notes: see m1; also called full-length DrBphP; source: E. coli BL21 (DE3), purified (NiNTA, size-exclusion chromatography), as part of the fusion m1
B2: binds.

— article PMC9744887, “Structural mechanism of signal transduction in a phytochrome histidine kinase” (Nature Communications, 2022)
